Biological target: thioredoxin (endogenous, mouse mediobasal hypothalamus extracts) (mouse) (UniProt P10639)
Experiment: cell-based or functional assay

Chain of UniProt P10639 (P10639 whole entry): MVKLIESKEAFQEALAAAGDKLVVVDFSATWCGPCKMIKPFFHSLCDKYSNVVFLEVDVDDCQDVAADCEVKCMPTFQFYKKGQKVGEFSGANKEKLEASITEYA

thioredoxin activity in the MBH (insulin-reducing assay) (fold decrease) | thioredoxin activity in the MBH (insulin-reducing assay) after TXNIP shRNA knockdown | Substance
2 |  | human thioredoxin-interacting protein (hTXNIP) (from UniProt Q9H3M7 1-391)
 | 50 % increase | thioredoxin-interacting protein (TXNIP), endogenous mouse (from UniProt Q8BG60 1-397)
